Results published in patent publication US20240376208A1 (AFFIMED, published 2024).
Read-outs that look alike come from different tables or passages of the source.

T1: BCMA on MM.1S target cells (UniProt Q02223 1-184, limits assumed)
T1 sequence (looked up): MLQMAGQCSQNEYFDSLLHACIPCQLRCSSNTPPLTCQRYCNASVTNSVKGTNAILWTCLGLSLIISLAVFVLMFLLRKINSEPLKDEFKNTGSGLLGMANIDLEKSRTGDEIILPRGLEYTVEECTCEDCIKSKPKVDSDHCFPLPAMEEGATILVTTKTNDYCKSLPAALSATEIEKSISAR

B1: Bi-scDb-Fc_01 (bispecific antibody, human IgG1)
chain: EVQLLESGGGLVQPGGSLRLSCAASGFTFSNYDMAWVRQAPGKGLEWVSSISTRGDITSYRDSVKGRFTISRDNSKNTLYLQMNSLRAEDTAVYYCARQDYYTDYMGFAYWGQGTLVTVSSGGGGSGGGGSGGGGSAIQMTQSPSSLSASVGDRVTITCRASEDIYNGLAWYQQKPGKAPKLLIYGASSLQDGVPSRFSGSGSGTEFTLTISSLQPEDEATYYCAGPHKYPLTFGGGTKVEIKEPKSCDKTHTCPPCPAPEFEGGPSVFLFPPKPKDTLMISRTPEVTCVVVAVSHEDPEVKFNWYVDGVEVHNAKTKPREEQYNSTYRVVSVLTVLHQDWLNGKEYKCKVSNKALPAPIEKTISKAKGQPREPQVYTLPPSREEMTKNQVSLTCLVKGFYPSDIAVEWESNGQPENNYKTTPPVLDSDGSFFLYSKLTVDKSRWQQGNVFSCSVMHEALHNHYTQKSLSLSPGGGGGSGGGGSSYVLTQPSSVSVAPGQTATISCGGHNIGSKNVHWYQQRPGQSPVLVIYQDNKRPSGIPERFSGSNSGNTATLTISGTQAMDEADYYCQVWDNYSVLFGGGTKLTVLGGSGGSQVQLVQSGAEVKKPGESLKVSCKASGYTFTSYYMHWVRQAPGQGLEWMGAIEPMYGSTSYAQKFQGRVTMTRDTSTSTVYMELSSLRSEDTAVYYCARGSAYYYDFADYWGQGTLVTVSSGGSGGSGGSGGSGGSGGSSYVLTQPSSVSVAPGQTATISCGGHNIGSKNVHWYQQRPGQSPVLVIYQDNKRPSGIPERFSGSNSGNTATLTISGTQAMDEADYYCQVWDNYSVLFGGGTKLTVLGGSGGSQVQLVQSGAEVKKPGESLKVSCKASGYTFTSYYMHWVRQAPGQGLEWMGAIEPMYGSTSYAQKFQGRVTMTRDTSTSTVYMELSSLRSEDTAVYYCARGSAYYYDFADYWGQGTLVTVSS
notes: Anti-BCMA scFv - silenced Fc - anti-CD16A scDb
B2: Bi-scDb-Fc_02 (bispecific antibody, human IgG1)
chain: QVQLQESGPGLVKPSETLSLTCTVSGGSVSSGSYYWSWIRQPPGKGLEWIGYIYYSGSTNYNPSLKSRVTISVDTSKNQFSLKLSSVTAADTAVYYCARNPISIPAFDIWGQGTMVTVSSGGSGGSGGSGGSGGSGGSQPVLTQPPSVSVAPGKTARITCGGNNIGSKSVHWYQQKPGQAPVLVIYYDSDRPSGIPERFSGSNSGNTATLTISRVEAGDEADYYCQVWDTSSDHVLFGGGTKLTVLEPKSCDKTHTCPPCPAPEFEGGPSVFLFPPKPKDTLMISRTPEVTCVVVAVSHEDPEVKFNWYVDGVEVHNAKTKPREEQYNSTYRVVSVLTVLHQDWLNGKEYKCKVSNKALPAPIEKTISKAKGQPREPQVYTLPPSREEMTKNQVSLTCLVKGFYPSDIAVEWESNGQPENNYKTTPPVLDSDGSFFLYSKLTVDKSRWQQGNVFSCSVMHEALHNHYTQKSLSLSPGGGGGSGGGGSSYVLTQPSSVSVAPGQTATISCGGHNIGSKNVHWYQQRPGQSPVLVIYQDNKRPSGIPERFSGSNSGNTATLTISGTQAMDEADYYCQVWDNYSVLFGGGTKLTVLGGSGGSQVQLVQSGAEVKKPGESLKVSCKASGYTFTSYYMHWVRQAPGQGLEWMGAIEPMYGSTSYAQKFQGRVTMTRDTSTSTVYMELSSLRSEDTAVYYCARGSAYYYDFADYWGQGTLVTVSSGGSGGSGGSGGSGGSGGSSYVLTQPSSVSVAPGQTATISCGGHNIGSKNVHWYQQRPGQSPVLVIYQDNKRPSGIPERFSGSNSGNTATLTISGTQAMDEADYYCQVWDNYSVLFGGGTKLTVLGGSGGSQVQLVQSGAEVKKPGESLKVSCKASGYTFTSYYMHWVRQAPGQGLEWMGAIEPMYGSTSYAQKFQGRVTMTRDTSTSTVYMELSSLRSEDTAVYYCARGSAYYYDFADYWGQGTLVTVSS
notes: Anti-EGFR scFv - silenced Fc - anti-CD16A scDb; Four anti-CD16A and two anti-EGFR Fv domains

What was measured:
[1] = target: T1, BCMA on MM.1S target cells; test: cell-based or functional assay
[2] = target: T2, biotinylated dimeric CD16A antigen (human, UniProt P08637 17-208, limits assumed, biotinylated (site not stated)); test: ELISA, biotinylated dimeric CD16A titrated on coated construct
T2 construct: Soluble antigen; also called soluble CD16A antigen
Experimental: (§1) For the capturing approach, 96-well ELISA plates (Immuno Maxisorp, Nunc) were coated overnight at 4° C. with His-tagged human EGFR or BCMA extracellular domain at concentrations of 3.0 or 0.4 μg/mL, respectively. After blocking with 3% (w/v) skimmed milk powder dissolved in phosphate buffered saline (PBS), antigen coated plates were used for capturing of different multivalent bispecific engagers at concentrations of 3-5 μg/mL in PBS containing 0.3% (w/v) skimmed milk powder. After washing three times with 300 μL per well of PBS containing 0.1% (v/v) Tween 20, plates were incubated with serial dilutions of biotinylated dimeric or monomeric CD16A antigen in PBS containing 0.3% (w/v) skimmed milk powder for 1.5 h at room temperature. After washing, plates were incubated with the detection conjugate Streptavidin HRP, 1:10,000 diluted in PBS containing 0.3% (w/v) skimmed milk powder for 1 h followed by washing and incubation with tetramethylbenzidine substrate (Seramun) for 1-2 min. Reaction was stopped by addition of 0.5 M H₂SO₄ (100 μL/well). Absorbance was measured at 450 nm using a multiwell plate reader, plotted and EC₅₀ values were determined by fitting a nonlinear regression model to sigmoidal dose-response curves (four parameters logistic fit) using GraphPad Prism software.
(§2) Concentration dependent binding of antibody constructs to coated recombinant CD16A antigen, or of soluble monomeric or dimeric CD16 antigen variants to coated or target antigen captured antibody constructs was analyzed in ELISA. Half maximal binding concentrations (EC₅₀) were determined by fitting a nonlinear regression model to sigmoidal dose-response curves (four parameters logistic fit) using GraphPad Prism software.

[3] = target: T3, biotinylated monomeric CD16A antigen (human, UniProt P08637 17-208, limits assumed, biotinylated (site not stated)); test: ELISA, biotinylated monomeric CD16A titrated on coated construct
T3 construct: Soluble antigen; also called soluble CD16A antigen
Experimental: as §1, §2

[4] = target: T4, recombinant CD16A 158F fused to monomeric human Fc (human, UniProt P08637 17-208); test: ELISA, construct titrated on coated CD16A 158F fused to monomeric human Fc
T4 construct: also called recombinant CD16 antigen variant; not shown: monomeric human Fc
Experimental: To assess binding of EGFR/CD16 or BCMA/CD16 antibodies to coated antigen in ELISA, 96-well ELISA plates (Immuno Maxisorp, Nunc) were coated overnight at 4° C. with recombinant CD16 antigen variants fused to monomeric human Fc at a concentration of 1.5 μg/mL in 100 mM carbonate-bicarbonate buffer. After blocking with 3% (w/v) skimmed milk powder dissolved in phosphate buffered saline (PBS) serial dilutions of bispecific antibody constructs were incubated on the antigen coated plates for 1.5 h at room temperature. […] After washing, plates were incubated with tetramethylbenzidine substrate (Seramun) for 1-2 min. Reaction was stopped by addition of 0.5 M H₂SO₄ (100 μL/well). Absorbance was measured at 450 nm using a multiwell plate reader, plotted and EC₅₀ values were determined by fitting a nonlinear regression model to sigmoidal dose-response curves (four parameters logistic fit) using GraphPad Prism software.
as §2

[5] = target: recombinant CD16A 158V fused to monomeric human Fc (human, UniProt P08637 17-208); test: ELISA, construct titrated on coated CD16A 158V fused to monomeric human Fc
[6] = target: T2, biotinylated dimeric CD16A antigen; test: ELISA, biotinylated dimeric CD16A titrated on construct captured by coated His-tagged human BCMA extracellular domain
Experimental: as §1, §2

[7] = target: T3, biotinylated monomeric CD16A antigen; test: ELISA, biotinylated monomeric CD16A titrated on construct captured by coated His-tagged human BCMA extracellular domain
Experimental: as §1, §2

[8] = target: T5, EGFR on tumor target cells (MCF-7, Daudi, DK-MG, HCT-116) (UniProt P00533 25-1210, limits assumed); test: cell-based or functional assay
[9] = target: T5, EGFR on tumor target cells (MCF-7, …); test: cell-based or functional assay; remark: listed apart in the source
[10] = target: CD16A on primary human NK cells (human, UniProt P08637 17-254); test: cell-based or functional assay
[11] = target: T5, EGFR on tumor target cells (MCF-7, …); test: cell-based or functional assay; remark: listed apart in the source
[12] = target: T2, biotinylated dimeric CD16A antigen; test: ELISA, biotinylated dimeric CD16A titrated on construct captured by coated His-tagged human EGFR extracellular domain
Experimental: as §1, §2

[13] = target: T3, biotinylated monomeric CD16A antigen; test: ELISA, biotinylated monomeric CD16A titrated on construct captured by coated His-tagged human EGFR extracellular domain
Experimental: as §1, §2

T3 sequence (P08637 17-208 limits assumed): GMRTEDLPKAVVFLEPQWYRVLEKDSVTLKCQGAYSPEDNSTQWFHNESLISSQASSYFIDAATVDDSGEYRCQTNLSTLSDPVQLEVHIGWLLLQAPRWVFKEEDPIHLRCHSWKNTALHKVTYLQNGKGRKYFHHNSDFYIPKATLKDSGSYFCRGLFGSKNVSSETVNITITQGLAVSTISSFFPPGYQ
T2 sequence (P08637 17-208 limits assumed): as above
Chain of recombinant CD16A 158V fused to monomeric human Fc (P08637 17-208 F176V): as the sequence (P08637 17-208 limits assumed) above, with F160V counted along it
T4 sequence (P08637 17-208): as the sequence (P08637 17-208 limits assumed) above
Chain of CD16A on primary human NK cells (P08637 17-254 limits assumed): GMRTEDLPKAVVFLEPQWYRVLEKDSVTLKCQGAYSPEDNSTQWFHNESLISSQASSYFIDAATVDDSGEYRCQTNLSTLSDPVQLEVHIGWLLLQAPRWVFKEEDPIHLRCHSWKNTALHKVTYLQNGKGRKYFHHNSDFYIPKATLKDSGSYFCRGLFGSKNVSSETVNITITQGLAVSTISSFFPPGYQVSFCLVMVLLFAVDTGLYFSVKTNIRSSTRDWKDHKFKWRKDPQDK

Binder | EC50 [pM], 4 h calcein-release cytotoxicity on BCMA+ MM.1S target cells, NK cells E:T 5:1 [1] [pM] | Emax [%], 4 h calcein-release cytotoxicity on BCMA+ MM.1S target cells, NK cells E:T 5:1 [1] [%] | EC50 [2] [pM] | EC50 [3] [pM] | EC50 [4] [pM] | EC50 [5] [pM] | EC50 [6] [pM] | EC50 [7] [pM] | EC50 [pM], 4 h calcein-release cytotoxicity on MCF-7 target cells, NK cells E:T 5:1 [8] [pM] | Emax [%], 4 h calcein-release cytotoxicity on MCF-7 target cells, NK cells E:T 5:1 [8] [%] | EC50 [pM], 4 h calcein-release cytotoxicity on Daudi target cells, NK cells E:T 5:1 [9] [pM] | Emax [%], 4 h calcein-release cytotoxicity on Daudi target cells, NK cells E:T 5:1 [9] [%] | Emax [%], 4 h calcein-release NK cell fratricide assay, E:T 1:1 [10] [%] | Emax [%], 4 h calcein-release cytotoxicity on Daudi target cells, NK cells E:T 5:1 [11] [%] | EC50 [12] [pM] | EC50 [13] [pM]
B1 | 1.1 | 51.2 | 1140 | 3400 | 240 | 170 | 640 | 1720 |  |  |  |  |  |  |  | 
B2 |  |  | 970 | 3100 | 130 | 110 |  |  | 1.9 | 32.9 | 20.5 | 32.6 | 23 | 18.4 | 790 | 1740
